Results reported in patent publication US8809529B2, “Imidazo[1,2-α]pyrazine derivatives” (Promega Corporation, priority 2010, dated 2014).

T1: caspase-3 (Homo sapiens, UniProt P42574)
T1 sequence (P42574 29-175 limits assumed): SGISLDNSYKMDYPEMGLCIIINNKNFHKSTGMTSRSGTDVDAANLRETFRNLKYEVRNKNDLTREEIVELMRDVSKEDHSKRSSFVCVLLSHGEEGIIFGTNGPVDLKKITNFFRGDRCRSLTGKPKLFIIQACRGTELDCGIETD
T1 sequence (P42574 176-277 limits assumed): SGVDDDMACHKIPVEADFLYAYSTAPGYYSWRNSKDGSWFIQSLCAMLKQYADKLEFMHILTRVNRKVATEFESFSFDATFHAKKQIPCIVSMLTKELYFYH


How the values were obtained:
[1] = Km of L27V reversion variants for native coelenterazine; assay type: biochemical
Method: Relative activities <1 indicate the reversion is detrimental compared to the residue at that site in the L27V variant. Relative activities >1 indicate the reversion is favorable for activity compared to the residue at that site in the L27V variant. Some additional data on these mutants indicated the following: 166K, 54F, 54A and L27V were tested for thermal stability. The T1/2 60° C. for 166K, 54F, and 54A were 87, 74, and 33%, respectively, indicating these substitutions cause a reduction in thermal stability. […] This indicates higher substrate affinity for L27V, particularly for the position 54 substitutions.

[2] = Exposure of L27V to 3 M urea; assay type: physicochemical; details: 30 min at 25° C.
Method: A 0.31 mg/mL stock of purified L27V variant was diluted 100,000-fold into buffer (PBS+1 mM DTT+0.005% IGEPAL) and incubated with 3 M urea for 30 min at 25° C. and then mixed 1:1 (50 μL+50 μL) with an assay reagent containing 100 μM PBI-3939 (previously described). The reactions were read on a TECAN® INFINITE® F500 luminometer as described previously (for 100 min; 1 min read intervals) (FIG. 89).

[3] = system: antioxidant response element (ARE); assay: ARE transcriptional reporter, reverse transfection, HEK293 cells; assay type: cell-based, human; details: for baseline: 24 h, 100 ng DNA
Method: HEK293 cells were trypsinized (T75 flask, 3 mL trypsin) and resuspended in […] (approximately 8.9×10^6 total cells) in medium containing DMEM+10% FBS+1×NEAA. Each transcriptional reporter was prepared for transfection by mixing 1.2 mL OPTI-MEM®, 12 μL transcription reporter DNA (100 ng) and 36 μL FUGENE® HD transfection reagent together and incubated at room temperature for 35 min. Following incubation, 624 μL of the transfection/reporter DNA mixture was added to 12 mL of cell suspension and mixed by inversion. After mixing, 100 μL of the cell/DNA mixture was added to wells of a 96-well plate (2 constructs/plate). The cells were incubated at 37° C. for 22 hrs. Tert-butylhydroquinone (a Nrf2 stabilizer; tBHQ; 1 μM (“baseline”) or 20 μM) or sulphoraphane, (an organosulfer antioxidant known to activate Nrf2; 1 μM (“baseline”) or 20 μM) in OPTI-MEM® was added to each well and incubated at 37° C. for 24 hrs. Cells were lysed with 100 μL lytic reagent as described above for the forward transfection. Luminescence was measured on a GLOMAX® Luminometer.

caspase-3 = biological target: T1, caspase-3; assay: Caspase-3 bioluminescent assay with 9B8 opt and z-DEVD-coelenterazine-h; assay type: biochemical
Method: 1. […] Purified caspase-3 enzyme was mixed with an E. coli lysate sample expressing the variant 9B8 opt, which was prepared as described in Example 27, and diluted 10-fold in a buffer containing 100 mM MES pH 6.0, 1 mM CDTA, 150 mM KCl, 35 mM thiourea, 2 mM DTT, 0.25% TERGITOL® NP-9 (v/v), 0.025% MAZU® DF 204, with or without 23.5 μM z-DEVD-coelenterazine-h in 100 mM HEPES pH 7.5 (“DEVD” disclosed as SEQ ID NO: 581). The caspase-3 enzyme was incubated with the lysate sample for 3 hrs at room temperature, and luminescence detected on a Turner MODULUS™ luminometer at various time points. A sample containing only bacterial lysate and a sample containing only caspase-3 were used as controls. Three replicates were used.

Molecule | Km [1] | reduction of activity by 3M urea [2] | baseline ([3]; 1 μM sulphoraphane) | baseline ([3]; 1 μM tBHQ) | Response ([3]; sulphoraphane) | Response ([3]; tBHQ) | + caspase (RLU) (caspase-3; 5 min, z-DEVD-coelenterazine-h) | no caspase (RLU) (caspase-3; 5 min, z-DEVD-coelenterazine-h) | + caspase (RLU) (caspase-3; 15.3 min) | no caspase (RLU) (caspase-3; 15.3 min) | + caspase (RLU) (caspase-3; 29.9 min) | no caspase (RLU) (caspase-3; 29.9 min) | + caspase (RLU) (caspase-3; 60.9 min) | no caspase (RLU) (caspase-3; 60.9 min) | + caspase (RLU) (caspase-3; 190.3 min) | no caspase (RLU) (caspase-3; 190.3 min)
L27V: 9B8 opt+K33N variant with L27V, T39T, K43R, Y68D (protein) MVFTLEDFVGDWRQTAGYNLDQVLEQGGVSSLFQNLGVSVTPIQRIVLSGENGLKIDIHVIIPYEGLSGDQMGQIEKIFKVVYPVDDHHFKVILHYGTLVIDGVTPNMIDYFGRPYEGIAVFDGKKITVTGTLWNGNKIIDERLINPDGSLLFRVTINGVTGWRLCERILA | 16 µM | approximately 50% |  |  |  |  |  |  |  |  |  |  |  |  |  | 
9B8 opt: codon optimized version of the 9B8 variant (protein) MVFTLEDFVGDWRQTAGYNLDQVLEQGGLSSLFQKLGVSVTPIQKIVLSGENGLKIDIHVIIPYEGLSGYQMGQIEKIFKVVYPVDDHHFKVILHYGTLVIDGVTPNMIDYFGRPYEGIAVFDGKKITVTGTLWNGNKIIDERLINPDGSLLFRVTINGVTGWRLCERILA |  |  | 15,600,000 | 15,100,000 | 5.8 | 8 | 25,411 RLU | 26,023 RLU | 36,906 RLU | 7,707 RLU | 41,854 RLU | 4,013 RLU | 43,370 RLU | 2,305 RLU | 42,448 RLU | 1,155 RLU
